Laboratory results taken from paper PMC3737525, “Structural and mechanistic basis of anti-termination of Rho-dependent transcription termination by bacteriophage P4 capsid protein Psu” (Nucleic Acids Research, 2013).
Residue numbers refer to the chain shown, from its start. Names may count otherwise.

Columns and labels:
[1] = target: T1, C-terminal, HMK-tagged P167L Rho, 32P-labelled (UniProt P0AG30 1-419, P167L, radiolabelled with [γ-32P]ATP in the HMK tag using protein kinase A); assay: Fe-BABE hydroxyl-radical protein cleavage; 0.2 µM 32P-labelled HMK-tagged P167L Rho and 2.5 µM Fe-BABE-labelled Psu, 37°C 30 min, 50 mM MOPS, 120 mM NaCl, 0.1 mM EDTA, 10 mM MgCl2, 10% glycerol, pH 8.0, 1 mM ATP; cleavage started with 4 mM ascorbate and hydrogen peroxide; SDS-PAGE autoradiogram; settings: both partners purified
T1 construct: Transcription termination factor Rho; also called P^32-labelled HMK-tagged P167L Rho; end-labelled Rho; not shown: HMK (heart muscle protein kinase) tag, C-terminal, kept
T1 sequence (P0AG30 whole entry P167L): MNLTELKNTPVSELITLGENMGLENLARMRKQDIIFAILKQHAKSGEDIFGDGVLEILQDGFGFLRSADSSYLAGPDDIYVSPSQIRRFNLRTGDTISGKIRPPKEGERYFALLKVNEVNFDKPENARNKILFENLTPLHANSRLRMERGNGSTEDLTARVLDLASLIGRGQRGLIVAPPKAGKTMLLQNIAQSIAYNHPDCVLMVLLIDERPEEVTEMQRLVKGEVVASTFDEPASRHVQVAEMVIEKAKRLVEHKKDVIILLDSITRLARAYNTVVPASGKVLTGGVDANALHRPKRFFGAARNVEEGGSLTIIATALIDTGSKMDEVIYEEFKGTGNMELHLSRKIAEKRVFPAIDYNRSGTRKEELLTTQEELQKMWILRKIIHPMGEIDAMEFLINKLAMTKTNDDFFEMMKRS

[2] = target: T1, C-terminal, HMK-tagged P167L Rho, …; assay: limited trypsin digestion (protein foot-printing); 0.2 µM 32P-labelled HMK-tagged P167L Rho with 2.5 µM WT Psu in transcription buffer with 1 mM ATP, 10 min 37°C, then increasing trypsin for 1 min; gradient SDS-PAGE autoradiogram; settings: both partners purified
[3] = target: T2, TMRA-labelled S153C Rho (on P167L Rho) (UniProt P0AG30 1-419, P167L | C202S | S153C, tetramethylrhodamine-5-maleimide (TMRA) on the single cysteine at 153); assay: FRET or BRET; fluorescein-labelled Psu (50 nM) and TMRA-labelled Rho (100 nM), 25 mM Tris-HCl pH 8.0, 50 mM KCl, 5 mM MgCl2, 25°C, 15 min; excitation 470 nm, emission enhancement at 570 nm; settings: both partners purified
T2 construct: Transcription termination factor Rho; natural cysteine removed, made on P167L Rho; also called TMRA–Rho S153C; source: labelled with tetramethylrhodamine-5-maleimide, excess dye removed
T2 sequence (P0AG30 whole entry S153C/P167L/C202S): as the sequence (P0AG30 whole entry P167L) above, with S153C, C202S counted along it

[4] = target: T3, TMRA-labelled S346C Rho (on P167L Rho) (UniProt P0AG30 1-419, P167L | C202S | S346C, tetramethylrhodamine-5-maleimide (TMRA) on the single cysteine at 346); assay: as above; settings: both partners purified
T3 construct: Transcription termination factor Rho; natural cysteine removed, made on P167L Rho; also called TMRA–Rho S346C; source: labelled with tetramethylrhodamine-5-maleimide, excess dye removed
T3 sequence (P0AG30 whole entry P167L/C202S/S346C): as the sequence (P0AG30 whole entry P167L) above, with C202S, S346C counted along it

[5] = target: T4, Single Cys derivative S153C of P167L Rho (UniProt P0AG30 1-419, P167L | C202S | S153C); assay: cross-linking; sulpho-LC-SPDP (cysteine to amine): SPDP-derivatized 32P-labelled Psu (~0.5 µM) with single-Cys Rho derivatives (~2 µM), 10 min 25°C, phosphate buffer (100 mM NaH2PO4, 150 mM NaCl, 1 mM EDTA, pH 7.5); non-reducing 12% PAGE; species sensitive to DTT; settings: both partners purified
T4 construct: Transcription termination factor Rho; natural cysteine removed, made on P167L Rho; also called S153C Rho
T4 sequence (P0AG30 whole entry S153C/P167L/C202S): as the sequence (P0AG30 whole entry P167L) above, with S153C, C202S counted along it

[6] = target: T5, Single Cys derivative S346C of P167L Rho (UniProt P0AG30 1-419, P167L | C202S | S346C); assay: as above; settings: both partners purified
T5 construct: Transcription termination factor Rho; natural cysteine removed, made on P167L Rho; also called S346C Rho
T5 sequence (P0AG30 whole entry P167L/C202S/S346C): as the sequence (P0AG30 whole entry P167L) above, with C202S, S346C counted along it

[7] = target: the molecule itself; assay: as above

B1: Fe-BABE-conjugated Psu S181C (natural protein, bacteriophage P4)
chain: MESTALQQAFDTSQNNKAAWLQRKNELAAAEQEYLRLLSGEGRNVSRLDELRNIIEVRKWQVNQAAGRYIRSHEAVQHISIRDRLNDFMQQHGTALAAALAPELMGYSELTAIARNSAIQRATDALREALLSWLAKGEKINYSAQDSDILTTIGFRPDVASVDDSREKFTPAQNMIFSRKCAQLASRQSV
modifications: Fe-BABE conjugated to the single cysteine at 181
notes: Psu (polarity suppressor), capsid-decoration protein of bacteriophage P4; natural cysteines removed; also called Fe-BABE-labelled Psu; source: conjugated with 5-fold molar excess of Fe-BABE (Pierce), desalted
[1]
  binding result: binds

B2: WT Psu (in vitro assays) (natural protein, bacteriophage P4)
chain: B1 chain with S13C, S117C, C181S
notes: Psu (polarity suppressor), 21 kDa capsid-decoration protein of bacteriophage P4; purification may stand in the Supplementary Methods
[2]
  binding result: binds

B3: Fluorescein-labelled Psu S181C (natural protein, bacteriophage P4)
chain: B1 chain
modifications: fluorescein-5-maleimide on the single cysteine at 181
notes: Psu (polarity suppressor), capsid-decoration protein of bacteriophage P4; natural cysteines removed; also called FL-labelled S181C Psu; source: labelled with fluorescein-5-maleimide, excess dye removed
[3]
  binding result: binds
[4]
  binding result: binds

B4: SPDP-derivatized, HMK-tagged non-cysteine derivative of Psu (C13S and C117S) (natural protein, bacteriophage P4)
chain: B1 chain with C181S
modifications: 32P end-label in the HMK tag; primary amines (lysines) labelled with sulpho-LC-SPDP
notes: Psu (polarity suppressor), capsid-decoration protein of bacteriophage P4; natural cysteines removed; also called SPDP-labelled Psu; radiolabelled Psu; source: labelled with sulpho-LC-SPDP (Pierce), desalted
[5]
  binding result: binds
[6]
  binding result: binds
[7]
  stoichiometry N: 2

B5: Fluorescein-labelled Psu S161C (natural protein, bacteriophage P4)
chain: B1 chain with S161C, C181S
modifications: fluorescein-5-maleimide on the single cysteine at 161
notes: Psu (polarity suppressor), capsid-decoration protein of bacteriophage P4; natural cysteines removed; also called FL-labelled S161C Psu; source: labelled with fluorescein-5-maleimide, excess dye removed
[3]
  binding result: binds
[4]
  binding result: binds
